Here are results for one molecule from article PMC12339945.

The data set deals with HIV-1 Tat (E. coli, purified) (HIV-1, UniProt P12506). The data set can be described thus: NMR titration (1D 1H imino). As to conditions: protein: recombinant; tags: N-terminal His6, stated as cleaved after purification.

Consider GGGAGCUUGAUCCCGGAAACGGUCGAUCGCUCCC (structured_RNA) [HIV Tat RNA aptamer (unlabeled)], for which the binding result is “binds”.
